In US20200262914A1 (MIT, published 2020):
Values belong to the binder of their own block, whether it stands above or below them.

Tests used:
[1] = molecular target: T1, human Bcl-xL (residues 1-209) (human, UniProt Q07817 1-209); assay: solution binding assays (competition FP)
T1 construct: range 1-209

[2] = molecular target: T1, human Bcl-xL (residues 1-209); assay: competition FP vs fluoresceinated Bim BH3, solution
Excerpt: (§1) We used the cell-surface experiments to select six peptides, for which we determined solution Ki values using a competition fluorescence polarization (FP) assay (FIG. 3, panel d).

[3] = molecular target: T2, human Bfl-1 (residues 1-151) (human, UniProt Q16548 1-151); assay: competition FP, solution
T2 construct: range 1-151
T2 sequence (looked up): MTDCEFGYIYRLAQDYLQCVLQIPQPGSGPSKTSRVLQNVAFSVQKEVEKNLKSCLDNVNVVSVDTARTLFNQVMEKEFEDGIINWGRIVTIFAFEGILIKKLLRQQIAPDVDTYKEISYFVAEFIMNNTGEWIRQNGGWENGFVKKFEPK
Excerpt: as §1

[4] = molecular target: T3, human Mcl-1 (residues 172-327) (human, UniProt Q07820 172-327); assay: competition FP, solution
T3 construct: range 172-327
Excerpt: as §1

[5] = molecular target: T2, human Bfl-1 (residues 1-151); assay: competition FP vs fluoresceinated Bim BH3, solution
Excerpt: as §1

[6] = molecular target: T3, human Mcl-1 (residues 172-327); assay: as above
Excerpt: as §1

[7] = molecular target: T2, human Bfl-1 (residues 1-151); assay: reported affinity; yeast cell-surface measurement presumed
[8] = molecular target: T2, human Bfl-1 (residues 1-151); assay: yeast display, sparse titration, apparent KD;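 note: designs displayed on the yeast cell surface, binding of soluble target protein measured at four concentrations spanning nanomolar to micromolar, apparent KD estimated from this sparse titration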
Description: We measured binding of the designs to 1, 10, 100 or 1000 nM of Bcl-xL, Mcl-1 and Bfl-1 using yeast cell-surface display.

T1 sequence (Q07817 1-209 limits assumed): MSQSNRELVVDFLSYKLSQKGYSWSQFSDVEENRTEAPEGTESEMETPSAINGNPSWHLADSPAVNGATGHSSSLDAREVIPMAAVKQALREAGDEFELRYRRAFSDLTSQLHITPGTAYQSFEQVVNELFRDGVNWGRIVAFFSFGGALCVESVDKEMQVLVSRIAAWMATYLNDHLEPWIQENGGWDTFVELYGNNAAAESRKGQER
T3 sequence (Q07820 172-327 limits assumed): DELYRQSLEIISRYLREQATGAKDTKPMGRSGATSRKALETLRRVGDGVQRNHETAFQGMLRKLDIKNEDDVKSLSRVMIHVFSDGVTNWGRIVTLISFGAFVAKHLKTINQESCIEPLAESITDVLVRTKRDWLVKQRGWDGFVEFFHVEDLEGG

B2: srt.MF02 (peptide)
peptide: Ac-RWIDQIAQFLRRIGDHIEKYIER-NH2
notes: synthetic solution peptide; also called MF2
fold tighter Ki than to Bcl-xL [3]: > 100 fold | fold tighter Ki than to Bcl-xL [4]: > 100 fold | Ki [2]: 1000 nM | Ki [5]: 6.6 nM | Ki [6]: 9 nM

Binder: GQRVVHIAAGLRRTGDQLEAYG [F4]
Kd [7]: 14 nM | Kd [8]: < 100 nM

Binder: GRRVVQIAAGLRRAGDQLEKYG [F10]
Kd [7]: 3.2 nM | Kd [8]: < 100 nM

Binder: Ac-QWLRWVIAELIRIADEFHAQYER-NH2 (synthetic solution peptide) [srt.MX01]
Ki [2]: 21 nM | Ki [6]: 11 nM

B4: srt.MF06 (peptide)
peptide: Ac-RRVDEIAQILRRIGDNVTTYIER-NH2
notes: synthetic solution peptide; also called MF6
fold tighter Ki than to Bcl-xL [3]: > 100 fold | fold tighter Ki than to Bcl-xL [4]: > 100 fold | Ki [5]: 19 nM | Ki [6]: 5.7 nM

Further lines, results first:

fold specificity for target over off-targets [1]: > 1000 fold | Ki [2]: 3.7 nM
B1: srt.X7 (peptide)
peptide: Ac-QPLIWFGAQLRRGADEFAAQRER-NH2
notes: synthetic solution peptide; also called srt.X07

Ki [2]: 20 nM | Ki [6]: 100 nM
Binder: Ac-QWLRDVVAELARIADEFHAQYER-NH2 (synthetic solution peptide) [srt.MX05]

fold specificity for target over off-targets [1]: > 1000 fold | Ki [2]: 1.32 nM
B3: srt.X1 (peptide)
peptide: Ac-QTLIWYGASLRRYADEFAKQRER-NH2
notes: synthetic solution peptide; also called srt.X01
